Experimental data: publication PMC5080701, “TIS7 induces transcriptional cascade of methylosome components required for muscle differentiation”

T1: GST-TIS7 (TPA Induced Sequence 7) (mouse, UniProt P19182 1-449)
T1 sequence: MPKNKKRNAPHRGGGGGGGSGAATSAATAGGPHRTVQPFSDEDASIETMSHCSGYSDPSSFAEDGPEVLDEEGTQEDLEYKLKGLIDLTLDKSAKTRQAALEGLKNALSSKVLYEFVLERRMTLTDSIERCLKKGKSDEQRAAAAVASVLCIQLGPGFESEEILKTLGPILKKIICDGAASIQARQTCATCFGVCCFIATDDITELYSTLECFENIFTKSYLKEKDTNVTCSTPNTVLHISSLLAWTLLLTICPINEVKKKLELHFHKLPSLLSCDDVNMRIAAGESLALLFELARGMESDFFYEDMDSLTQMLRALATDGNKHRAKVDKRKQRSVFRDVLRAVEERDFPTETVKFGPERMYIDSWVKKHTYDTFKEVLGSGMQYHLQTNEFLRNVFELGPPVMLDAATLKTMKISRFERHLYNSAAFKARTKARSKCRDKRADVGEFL


Tests used:
[1] = biological target: T1, GST-TIS7 (TPA Induced Sequence 7); assay: EMSA; blocked by 20-fold excess of unlabelled oligonucleotide; supershifted by TIS7 antibody; EMSA: 1 ug probe, 10 min, 5% native PAGE (50 mM Tris pH 7.5, 0.38 M glycine, 2 mM EDTA; run in TBE), binding buffer not stated; SPR: Biacore X100, SA chip, oligos annealed in 30 mM Na3PO4, 200 mM NaCl, 1 mM DTT pH 7.2, protein dialyzed in 50 mM Tris pH 7.4, 150 mM NaCl; running buffer and temperature not stated; conditions: protein: recombinant; tags: N-terminal GST; blunt
[2] = biological target: T1, GST-TIS7 (TPA Induced Sequence 7); assay: SPR; Kd value printed only in Fig. 4d; 10-fold difference in Kd between native and scrambled sequence; EMSA: 1 ug probe, 10 min, 5% native PAGE (50 mM Tris pH 7.5, 0.38 M glycine, 2 mM EDTA; run in TBE), binding buffer not stated; SPR: Biacore X100, SA chip, oligos annealed in 30 mM Na3PO4, 200 mM NaCl, 1 mM DTT pH 7.2, protein dialyzed in 50 mM Tris pH 7.4, 150 mM NaCl; running buffer and temperature not stated; conditions: protein: recombinant; tags: N-terminal GST; label: 5'-biotin on sense strand; blunt

Row | Binder | binding result [1] | binding result [2]
1 | ICln promoter minimal essential region (-154/-113), EMSA probe (dsDNA) DNA 1: TAGAATGTCTCATCTCTATGGTCGACGGCGTTCAGATTCCG DNA 2: CGGAATCTGAACGCCGTCGACCATAGAGATGAGACATTCTA | binds | –
2 | ICln promoter minimal essential region (-154/-113), SPR (dsDNA) DNA 1: TAGAATGTCTCATCTCTATGGTCGACGGCGTTCAGATTCCG DNA 2: CGGAATCTGAACGCCGTCGACCATAGAGATGAGACATTCTA | – | binds
